According to patent US20040157327A1:

Biological target: Pablo, full length (pro-apoptotic Bcl-xL binding protein) (human) (UniProt Q92558)
Assay: cell-based or functional assay

Sequence of UniProt Q92558 (Q92558 whole entry): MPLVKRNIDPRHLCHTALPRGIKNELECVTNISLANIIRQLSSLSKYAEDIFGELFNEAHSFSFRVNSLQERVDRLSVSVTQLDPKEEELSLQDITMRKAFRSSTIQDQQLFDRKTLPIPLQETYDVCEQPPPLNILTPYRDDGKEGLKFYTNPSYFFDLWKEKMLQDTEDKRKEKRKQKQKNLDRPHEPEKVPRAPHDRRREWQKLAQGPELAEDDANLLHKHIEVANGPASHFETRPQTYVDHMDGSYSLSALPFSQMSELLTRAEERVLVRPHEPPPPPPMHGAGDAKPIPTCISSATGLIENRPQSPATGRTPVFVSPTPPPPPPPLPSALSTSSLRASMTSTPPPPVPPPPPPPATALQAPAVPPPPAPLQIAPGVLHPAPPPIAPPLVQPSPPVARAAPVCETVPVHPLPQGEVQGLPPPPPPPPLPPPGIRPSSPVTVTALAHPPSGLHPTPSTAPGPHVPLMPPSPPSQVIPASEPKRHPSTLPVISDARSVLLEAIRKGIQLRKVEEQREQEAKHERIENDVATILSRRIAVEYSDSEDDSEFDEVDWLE

Bcl-xL-eGFP (from UniProt Q07817 1-233)
apoptotic nuclei at 48 hours post-transfection/induction (PC12-Pablo cells, Hoechst stain): 3.5%
percentage of PC12 cells that were eGFP+, 48 hours post-transfection/induction: 14%
